Assay results published in PMC8096248.

Assays:
PolD cPIP mutant;PCNA1 = PolD cPIP mutant;PCNA1 (Thermococcus kodakarensis;Thermococcus …, UniProt Q5JET1;Q5JET0;Q5JF32 1-735;1-963+1438-1798;1-249, L1792A;F1795A;F1796A;internal_change|); assay: gel filtration
PolD (DP1-DP2);PCNA1 = PolD (DP1-DP2);PCNA1 (Thermococcus kodakarensis;Thermococcus …, UniProt Q5JET1;Q5JET0;Q5JET0;Q5JF32 1-735;1-963;1438-1798;1-249, |); assay: gel filtration
[1] = biological target: family-D DNA polymerase (PolD), DP1–DP2 complex, T. kodakarensis, recombinant wild type (Thermococcus kodakarensis) (UniProt Q5JET0); assay: SPR

Row | Binder | binding result (PolD cPIP mutant;PCNA1) | binding result (PolD (DP1-DP2);PCNA1) | Kd [1]
1 | primed DNA d29/d45 (dsDNA, 3'-OH of d29 replaced by NH2) DNA 1: GGTACCGGGCCCCCCCTCGAGGTCGACGG DNA 2: ATCAAGCTTATCGATACCGTCGACCTCGAGGGGGGGCCCGGTACC | binds | binds | 
2 | PriS, small subunit of primase, T. kodakarensis, recombinant (natural protein) MSKLLREVTPEERRLYYSGEWDAKKLPEFIVESIERREFGFDHTGEGPSDRKNAFSDVRDLEDYIRATAPYAAYSSVAFYRNPQEMEGWLGAELVFDIDAKDLPLRRCQNEHPSGQVCPICLEDAKELARDTLIILKEDFGFENIHVVYSGRGYHIRVIDEWALKLDSKARERILSYVSAAEEVTFDDIQKRYIMLSSGYFRVFRLRFGYFIQRINENHLKNIGLKRSTAEKLLDEKTRQDIVEKFVNKGLLAAFPEGVGYRTLLRLFGLSTTFSKAYFDGRVTVDLKRILRLPSTLHSKVGLVATYIGSDEKRLEKFDPFKDAVPEFRKEEVQKAYQEWKELHEG |  |  | 1400 nM
3 | PriL, large subunit of primase, T. kodakarensis, recombinant (natural protein) MLDPFGKRAESLIREEFGDLLALLERVPSAISVEEPISLVSWMLESENPPQELVEVDNLEELRDLFKFYALLGAASISPYGLEAEVVKRATLRLYSERIKASKNLSETMLPVVPVGENEIPHNDLNILERRMDRNLSPEEKEKLKIKYKIPIKDLLNLWGSSLKEVYIRNGYAYLRWETALKMWEKAFEKRFERAVNILYEYRDELPEFYHRLREKLEEIAEEYFKERGEMFKGTASPLRFDLFPPCVKEALKGVPAGMRNYAITVLLTSFLSYARICPNPPKKDVRIKDCINDLKIIEEEILPVIIEAGNRCKPPLFEDQPHEIKNIWYHLGFGLTDSPTMEDSGNSTWYFPPNCDKIRANAPQLCKPDKYCRGIKNPLSYYLKRLYLEGKKKEGETSE |  |  | 160 nM
